Laboratory results taken from the Human Domainome abundance scans (Beltran et al. 2025).
± gives the uncertainty stated by the source.

B1: Death-inducer obliterator 1, residues 263 to 321; numbered along this chain, Q9BTC0 (parent)
chain: GYDPNALYCICRQPHNNRFMICCDRCEEWFHGDCVGISEARGRLLERNGEDYICPNCTI

Variants of: B1
Experiment: abundance fitness (aPCA) (normalised: wild type 0, dead -1); higher = more abundant; growth selection in yeast, the domain comes from the species named
Details: Homo sapiens

Question: For GYDPIALYCICRQPHNNRFMICCDRCEEWFHGDCVGISEARGRLLERNGEDYICPNCTI [N5I], which abundance fitness is on record?
Answer: -0.242 ± 0.11

Question: Which abundance fitness does the source give for GYDPFALYCICRQPHNNRFMICCDRCEEWFHGDCVGISEARGRLLERNGEDYICPNCTI [N5F] here?
Answer: -0.189 ± 0.13

Question: For GYDPSALYCICRQPHNNRFMICCDRCEEWFHGDCVGISEARGRLLERNGEDYICPNCTI [N5S], which abundance fitness is on record?
Answer: -0.259 ± 0.069

Question: For GYDPVALYCICRQPHNNRFMICCDRCEEWFHGDCVGISEARGRLLERNGEDYICPNCTI [N5V], which abundance fitness is on record?
Answer: -0.186 ± 0.13

Question: For GYDPTALYCICRQPHNNRFMICCDRCEEWFHGDCVGISEARGRLLERNGEDYICPNCTI [N5T], which abundance fitness is on record?
Answer: -0.319 ± 0.082

Question: For GYDPPALYCICRQPHNNRFMICCDRCEEWFHGDCVGISEARGRLLERNGEDYICPNCTI [N5P], which abundance fitness is on record?
Answer: -0.796 ± 0.2

Question: With GYDPYALYCICRQPHNNRFMICCDRCEEWFHGDCVGISEARGRLLERNGEDYICPNCTI [N5Y] as the variant, how does the abundance fitness read?
Answer: -0.623 ± 0.16

Question: With GYDPKALYCICRQPHNNRFMICCDRCEEWFHGDCVGISEARGRLLERNGEDYICPNCTI [N5K] as the variant, how does the abundance fitness read?
Answer: -0.23 ± 0.11

Question: Which abundance fitness does the source give for GYDPDALYCICRQPHNNRFMICCDRCEEWFHGDCVGISEARGRLLERNGEDYICPNCTI [N5D] here?
Answer: 0.004 ± 0.072

Question: For GYDPAALYCICRQPHNNRFMICCDRCEEWFHGDCVGISEARGRLLERNGEDYICPNCTI [N5A], which abundance fitness is on record?
Answer: -0.413 ± 0.092

Question: Which abundance fitness does the source give for GYDPEALYCICRQPHNNRFMICCDRCEEWFHGDCVGISEARGRLLERNGEDYICPNCTI [N5E] here?
Answer: -0.184 ± 0.1

Question: With GYDPWALYCICRQPHNNRFMICCDRCEEWFHGDCVGISEARGRLLERNGEDYICPNCTI [N5W] as the variant, how does the abundance fitness read?
Answer: -0.793 ± 0.32

Question: Which abundance fitness does the source give for GYDPGALYCICRQPHNNRFMICCDRCEEWFHGDCVGISEARGRLLERNGEDYICPNCTI [N5G] here?
Answer: -0.273 ± 0.1

Question: For GYDPHALYCICRQPHNNRFMICCDRCEEWFHGDCVGISEARGRLLERNGEDYICPNCTI [N5H], which abundance fitness is on record?
Answer: -0.433 ± 0.11

Question: With GYDPRALYCICRQPHNNRFMICCDRCEEWFHGDCVGISEARGRLLERNGEDYICPNCTI [N5R] as the variant, how does the abundance fitness read?
Answer: -0.211 ± 0.063

Question: For GYDPQALYCICRQPHNNRFMICCDRCEEWFHGDCVGISEARGRLLERNGEDYICPNCTI [N5Q], which abundance fitness is on record?
Answer: -0.112 ± 0.085

Question: Which abundance fitness does the source give for GYDPLALYCICRQPHNNRFMICCDRCEEWFHGDCVGISEARGRLLERNGEDYICPNCTI [N5L] here?
Answer: -0.331 ± 0.084

Question: Which abundance fitness does the source give for GYDPMALYCICRQPHNNRFMICCDRCEEWFHGDCVGISEARGRLLERNGEDYICPNCTI [N5M] here?
Answer: -0.113 ± 0.093

Question: For GYDPCALYCICRQPHNNRFMICCDRCEEWFHGDCVGISEARGRLLERNGEDYICPNCTI [N5C], which abundance fitness is on record?
Answer: -0.497 ± 0.11

Question: With GYDMNALYCICRQPHNNRFMICCDRCEEWFHGDCVGISEARGRLLERNGEDYICPNCTI [P4M] as the variant, how does the abundance fitness read?
Answer: 0.021 ± 0.059

Question: For GYDFNALYCICRQPHNNRFMICCDRCEEWFHGDCVGISEARGRLLERNGEDYICPNCTI [P4F], which abundance fitness is on record?
Answer: 0.264 ± 0.17

Question: Which abundance fitness does the source give for GYDENALYCICRQPHNNRFMICCDRCEEWFHGDCVGISEARGRLLERNGEDYICPNCTI [P4E] here?
Answer: -0.213 ± 0.23

Question: Which abundance fitness does the source give for GYDDNALYCICRQPHNNRFMICCDRCEEWFHGDCVGISEARGRLLERNGEDYICPNCTI [P4D] here?
Answer: 0.354 ± 0.26

Question: With GYDRNALYCICRQPHNNRFMICCDRCEEWFHGDCVGISEARGRLLERNGEDYICPNCTI [P4R] as the variant, how does the abundance fitness read?
Answer: 0.076 ± 0.062

Question: Which abundance fitness does the source give for GYDWNALYCICRQPHNNRFMICCDRCEEWFHGDCVGISEARGRLLERNGEDYICPNCTI [P4W] here?
Answer: -0.086 ± 0.085

Question: Which abundance fitness does the source give for GYDNNALYCICRQPHNNRFMICCDRCEEWFHGDCVGISEARGRLLERNGEDYICPNCTI [P4N] here?
Answer: -0.036 ± 0.12

Question: For GYDKNALYCICRQPHNNRFMICCDRCEEWFHGDCVGISEARGRLLERNGEDYICPNCTI [P4K], which abundance fitness is on record?
Answer: 0.297 ± 0.22

Question: For GYDGNALYCICRQPHNNRFMICCDRCEEWFHGDCVGISEARGRLLERNGEDYICPNCTI [P4G], which abundance fitness is on record?
Answer: -0.122 ± 0.067

Question: For GYDHNALYCICRQPHNNRFMICCDRCEEWFHGDCVGISEARGRLLERNGEDYICPNCTI [P4H], which abundance fitness is on record?
Answer: -0.062 ± 0.25

Question: Which abundance fitness does the source give for GYDVNALYCICRQPHNNRFMICCDRCEEWFHGDCVGISEARGRLLERNGEDYICPNCTI [P4V] here?
Answer: -0.183 ± 0.094

Question: Which abundance fitness does the source give for GYDINALYCICRQPHNNRFMICCDRCEEWFHGDCVGISEARGRLLERNGEDYICPNCTI [P4I] here?
Answer: -0.14 ± 0.17

Question: Which abundance fitness does the source give for GYDTNALYCICRQPHNNRFMICCDRCEEWFHGDCVGISEARGRLLERNGEDYICPNCTI [P4T] here?
Answer: -0.147 ± 0.074

Question: For GYDYNALYCICRQPHNNRFMICCDRCEEWFHGDCVGISEARGRLLERNGEDYICPNCTI [P4Y], which abundance fitness is on record?
Answer: -0.258 ± 0.19

Question: With GYDLNALYCICRQPHNNRFMICCDRCEEWFHGDCVGISEARGRLLERNGEDYICPNCTI [P4L] as the variant, how does the abundance fitness read?
Answer: 0.036 ± 0.079

Question: For GYDQNALYCICRQPHNNRFMICCDRCEEWFHGDCVGISEARGRLLERNGEDYICPNCTI [P4Q], which abundance fitness is on record?
Answer: -0.043 ± 0.35

Question: With GYDCNALYCICRQPHNNRFMICCDRCEEWFHGDCVGISEARGRLLERNGEDYICPNCTI [P4C] as the variant, how does the abundance fitness read?
Answer: 0.063 ± 0.084

Question: For GYDSNALYCICRQPHNNRFMICCDRCEEWFHGDCVGISEARGRLLERNGEDYICPNCTI [P4S], which abundance fitness is on record?
Answer: 0.091 ± 0.078

Question: Which abundance fitness does the source give for GYDANALYCICRQPHNNRFMICCDRCEEWFHGDCVGISEARGRLLERNGEDYICPNCTI [P4A] here?
Answer: -0.075 ± 0.083

Question: For GYDPNDLYCICRQPHNNRFMICCDRCEEWFHGDCVGISEARGRLLERNGEDYICPNCTI [A6D], which abundance fitness is on record?
Answer: -0.434 ± 0.12

Question: With GYDPNELYCICRQPHNNRFMICCDRCEEWFHGDCVGISEARGRLLERNGEDYICPNCTI [A6E] as the variant, how does the abundance fitness read?
Answer: -0.328 ± 0.21

Question: With FYDPNALYCICRQPHNNRFMICCDRCEEWFHGDCVGISEARGRLLERNGEDYICPNCTI [G1F] as the variant, how does the abundance fitness read?
Answer: 0.058 ± 0.17

Question: For PYDPNALYCICRQPHNNRFMICCDRCEEWFHGDCVGISEARGRLLERNGEDYICPNCTI [G1P], which abundance fitness is on record?
Answer: -0.104 ± 0.4

Question: With WYDPNALYCICRQPHNNRFMICCDRCEEWFHGDCVGISEARGRLLERNGEDYICPNCTI [G1W] as the variant, how does the abundance fitness read?
Answer: -0.336 ± 0.21

Question: For NYDPNALYCICRQPHNNRFMICCDRCEEWFHGDCVGISEARGRLLERNGEDYICPNCTI [G1N], which abundance fitness is on record?
Answer: 0.109 ± 0.11

Question: Which abundance fitness does the source give for VYDPNALYCICRQPHNNRFMICCDRCEEWFHGDCVGISEARGRLLERNGEDYICPNCTI [G1V] here?
Answer: 0.323 ± 0.098
